Test: soluble on expression in E. coli; label from the status in PepcDB or PDB records

Sequence	soluble on expression in E. coli
MGSSHHHHHHSSGRENLYFQGMVKNYVLDTNVLIHDPDSIFSFEDNNVIIPLPVLEELDKLKREHGSVGKNAREVIRHLDELRKKGNLRKGIPLENGGILRVMVLEREVENVPRFLHERYVDNIILAYVIELMNREKIPTILVSKDINLRVKADSLGIPAQDYLTDRSELETMPKGYVEIDDEELKKQLKVKVTVEKKLDLLDNFYIDLGGVYGKYRKGKVLRVEPFETMGISPRNREQIFSMDALLDDEIPLVFLVGIAGTGKTLLALACGLYKVLVEKRYKKLIVTRPTVPMGRDIGYLPGELEKKMKPWLQPIMDNLELISSLSGLKIKELEKQEILEVEAISFIRGRSIPKQFIIIDEAQNLTPHEVKTILTRVGEDTKIVLVGDPYQIDTPYLDKDTNGLVYAALKLLESDLSAVIKLEKGERSRLATIAAELL	soluble
FSKTQRWAEPGEPICVVCGRYGEYICDKTDEDVCSLECKAKHLLQVKEKEEKS	soluble
SATTVTLEKCGHNKGYKGLDNCRFCPGSQCCVEDGPESIDSIIDMDAVCKRVTTLGLDVSVTISQDAGRYLCDFTYYTSLYQSHGRSAFVHVPPLGKPYNADQLGRALRAIIEEMLDLLEQSEGKINYCHKH	soluble
MTMRNFDLSPLMRQWIGFDKLANALQNAGESQSFPPYNIEKSDDNHYRITLALAGFRQEDLEIQLEGTRLSVKGTPEQPKEEKKWLHQGLMNQPFSLSFTLAENMEVSGATFVNGLLHIDLIRNEPEPIAAQRIAISERPALNS	not soluble
MESNTWNTIHDNKKENAALNDVQVEVNYAIKLDDQWTVRPGMLTHFSSNGTRYGPYVKLSWDATKDLNFGIRYRYDWKAYRQQDLSGDMSRDNVHRWDGYVTYHINSDFTFAWQTTLYSKQNDYRYANHKKWATENAFVLQYHMTPDITPYIEYDYLDRQGVYNGRDNLSENSYRIGVSFKL	not soluble
MAHHHHHHMGVKFIVEHMDDLEEWCILEYMHICEIVKDENIIFTKFKGNFKDISKSHEPKCYEKSIGDLKDEFGWNKICLLDMKAKDVLTCKDKNEIDFLLFGGILGNVPSNDRTSELRKFEFPISRNLGSVQMTTNTAVLVCHIILNDQVELENIPFVDNPDIVLKNNKESMMLPFRFVSKYYYTKCESDKNVPILPKNFKDYLIKLGDQQYNDLDSFF	soluble
MGSDKIHHHHHHMSNDETVEKVTQQVSELKSTDVKEQVVTPWDVEGGVDEQGRAQNIDYDKLIKQFGTKPVNEETLKRFKQVTGREPHHFLRKGLFFSERDFTKILDLYEQGKPFFLYTGRGPSSDSMHLGHMIPFVFTKWLQEVFDVPLVIELTDDEKFLFKHKLTINDVKNFARENAKDIIAVGFDPKNTFIFSDLQYMGGAFYETVVRVSRQITGSTAKAVFGFNDSDCIGKFHFASIQIATAFPSSFPNVLGLPDKTPCLIPCAIDQDPYFRVCRDVADKLKYSKPALLHSRFFPALQGSTTKMSASDDTTAIFMTDTPKQIQKKINKYAFSGGQVSADLHRELGGNPDVDVAYQYLSFFKDDDVFLKECYDKYKSGELLSGEMKKLCIETLQEFVKAFQERRAQVDEETLDKFMVPHKLVWGEKERLVAPKPKTKQEKK	not soluble
RHNLIQRKRELDKQNELYRAIISASFAFVFQIDTEARFSFVSPSVEDFTGYRPDMLNGEPISILGSDEQAIKEARDYLARVLNDGEAIQVRGHPIETRSGNTVYGDIRAEPIYEPSVASSARTTENIIGAQVMVRDAS	not soluble
MAFADIVRSVENRTNAATLNWSIKNGWKPEVTGFSGYGSGRRVRVLARVLMSNPENLLVDAPSQSITQQAQRGWRQFFTIQVPNLPVTVTVGGKTVTSSTNDNGYVDLLVEDHNLDPGWHTIQIQAEGSTPAEARVLIVENTARIGLISDIDDTIMVTWLPRALLAAWNSWVLHTKTRKPVPGMNRFYEELLKDHPDAPVFYLSTGAWNTFETLQEFINKHALPDGPMLLTDWGPTPTGLFRSGQEHKKVQLRNLFIEYPDMKWILVGDDGQHDPLIYGEAVEEHPNRIAGVAIRELSPGEHVLSHGTTASLSTITTNGGQGVPVVHGRDGYELLQRYETKPFALEHHHHHH	soluble
MKNIGVNINSCKDPDGTIRKYVEKVIKEEKKDVQVKFYDELNYFDEVCKTKPDFFIAFGGDGTILNAARNLVSCGIPIFSVNIGHLGFLSSIEFKDFKDAIHKIFKGEYFFQERTMLKCSFIKGNSKKVFYSLNEVVLYKGNMAKILKYNIDVDDKFYMGFKSDGIIISTPTGSTAYNLSAGGPIIYPNLDLISLTPICPQGPYAGTIVLDGKSNITISGIDANENVFITVDGRQPVDVKGVSFIEISKLNYKCKLLKLKDYNYFEVLRKKIILRTEECEGDKYMAGDPLEHHHHHH	soluble
SDLDLLDLNPRIIAAIKKAKLKSVKEVLHFSGPDLKRLTNLSSPEVWHLLRTASLHLRGSSILTALQLHQQKERFPTQHQRLSLGCPVLDALLRGGLPLDGITELAGRSSAGKTQLALQLCLAVQFPRQHGGLEAGAVYICTEDAFPHKRLQQLMAQQPRLRTDVPGELLQKLRFGSQIFIEHVADVDTLLECVNKKVPVLLSRGMARLVVIDSVAAPFRCEFDSQASAPRARHLQSLGATLRELSSAFQSPVLCINQVTEAMEEQGAAHGPLGFWDERVSPALGITWANQLLVRLLADRLREEEAALGCPARTLRVLSAPHLPPSSCSYTISAEGVRGTPGTQSH	soluble
MSLKDINIGVVLPLTGTVAAYGQDVFNGIELANKLQPKLSNGDVIKLITIDTKGDKLETSNGVNRLIATDKVLGIIGEATTPNTIQAISIAEEKKIPLIAPVASGDKLLDKKKYASRVCFKDSFQGDKFATYVSKDLGLKNAVIIIDQSNVYSLGLARAFENSFKNNGGKIIKKLVINSGDKDFRAVVSQLKSLNPDFVYMPIYHPEAALIARQARQIGFDKLLVAGDGVNNQTFIDLGGSAVNGVIFTDSFDYNSPSTQLGKDFVAAYEKVKGTKELPAFSAMGADAYFVMLNAMNACVDNLSSECINSKIHQTKDFQAVGGVISIDESGNAIRSVVIKEIQNQKQNYKTIINEGHHHHHH	soluble
MSLGPPSIARTVTPNASIPKTPEDISILPVNDEPGYLQDSKTEQNYPELADAVKSQTSQTCSEEHKYVIMIDAGSTGSRVHIYKFDVCTSPPTLLDEKFDMLEPGLSSFDTDSVGAANSLDPLLKVAMNYVPIKARSCTPVAVKATAGLRLLGDAKSSKILSAVRDHLEKDYPFPVVEGDGVSIMGGDEEGVFAWITTNYLLGNIGANGPKLPTAAVFDLGGGSTQIVFEPTFPINEKMVDGEHKFDLKFGDENYTLYQFSHLGYGLKEGRNKVNSVLVENALKDGKILKGDNTKTHQLSSPCLPPKVNATNEKVTLESKETYTIDFIGPDEPSGAQCRFLTDEILNKDAQCQSPPCSFNGVHQPSLVRTFKESNDIYIFSYFYDRTRPLGMPLSFTLNELNDLARIVCKGEETWNSVFSGIAGSLDELESDSHFCLDLSFQVSLLHTGYDIPLQRELRTGKKIANKEIGWCLGASLPLLKADNWKCKIQSAEGHHHHHH	soluble
MRHILSVLIENESGAMSRVVGLFSARDYNIDSLAVAPTEDKTLSRMTIVTHGDEQVIEQITKQLNKLIEVIKVVDLNESRFVERELMLVKVRAAGKDRDEFLRLTEIYRGSIIDVTDRSYTIEITGSTDKLDSFLETVGRAQILETVRTGAAGIGRGERILKI	not soluble
SMVLLTMIARVADGLPLAASMQEDEQSGRDLQQYQSQAKQLFRKLNEQSPTRCTLEAGAMTFHYIIEQGVCYLVLCEAAFPKKLAFAYLEDLHSEFDEQHGKKVPTVSRPYSFIEFDTFIQKTKKLYIDSRARRNLGSINTELQDVQRIMVANIEEVLQRGEALSALDSKANNLSSLSKKYRQDAKYLNMRSTYAK	soluble
MQGEALKDFLFDKADDMKAVDIVTLDVKEKSSVTDYMIVCTGTSKRHVASIAEHVANEAKLSGLQPLGMNGENEGEWVVLDMGSVMLHVMQEAPRELYQLEKLWGLEHHHHHH	not soluble
MQVSIVNEHKYRELEPLNEMLVKRGGVKMIPEPKFVISGLVDNEEYVIKLRIDLADEFRYSYQNQQWTPFAPSTKNSKLSAITETEHRKETGATWNMRIVQFDKLLITREFNDIQRNVIHVEPNHKYIPVLTIQNVTTGKSTEFQFQQMEFIAVKSYQSARIRHTKRAPRKMNLAPGSSQKPQLIVPDILHSPTYGFTAAPPPFPFEYWLLYPQIQYQIQQLAYSLPMGPPMVPIHHIQCTEASQRVYAPEYGWNSILMPGAHKEQDDHYMFHHEIWAPQDHELEKLHVLTEQKNKPSETPQ	not soluble

Source: the DeepSol protein solubility set
